Experimental data from a protein production outcome set (Wang et al. 2014).

Test: label from the status in PepcDB records
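Further: failed if final PepcDB status was selected cloned or expressed and not failed if soluble or beyond.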

Sequence	protein production
MKEQILEKLKTVKYPGFEKDIVSFNFVKDIKIQDDGVFIDIEIVSANPEVANEIRKNTIEALSSLALKNIELNIITPKIPEEKSNSRSGKNIAPQVKNFIMVSSGKGGVGKSTTTVNLAISMAKMGKRVGILDADIYGPNIPRMLGETKTQPEVVGQRLKPILTHGVYMMSMGVLIEEGQGLMWRGAMIMKAIEQLLADVIWPELDVLFLDMPPGTGDAQITSAQSIPIAAGVCVSTPQTVSLDDSKRALDMFNKLHIPIAGVIENMSGFLCPDNGKEYDIFGKGTAEDMAKAYKSEVLAQIPIEMIVREGGDEGKPVSFYHPESVSSKRYLMAAEKIWSFIEKINNEGGADNSAIQPVMNGKSACSHLEHHHHHH	not failed
MKETHNSQDRLAYLKQQLPADITRSVIDTLKEDLGGTLDPAADITASLIPADRISTATIITREAGVFCGQLWADEVFKQLGGQVSIEWHVQDGDTLTPNQTLCTLTGPARILLTGERNAMNFIQTLSGCATATARYVQELKGTQCRLLDTRKTIPGLRSALKYAVACGGGYNHRIGVFDAYLIKENHIIACGGIRQAISTAKQLNPGKPVEVETETLAELEEAISAGADIIMLDNFSLEMMREAVKINAGRAALENSGNITLDNLKECAETGVDYISVGALTKHLKALDLSMRFKS	not failed
MKETYYFAYGSNMNLDQMAYRCPAASVVEPVHLEGYRLTFCGRGKGSGVATILPEEGSRVEGVLWKITPECEKSLDFYEGYPHLYGKEPVLVQGKDGMKREVMAYTMNAPYKDQPAIPSDLYFMGIVEGCHQNGISSRSVTDALKRVREEVGRQKPSQKKTEVSR	failed
MKFDNKAPIYIQIMDKIKIDIINGTLKPGDKLPSVREMAVKFKVNPNTLQRVYQELERENITYTQRGTGSFVREDSDMIINLKKEMASEVIENFIENIKEFGFGNKDILKIVEDKLNEEEK	not failed
MKFDVIIIGSGLAGLTAGIRLAEAGKSCAIISNGQSALHFSSGSLDLLTHLPDGTPVSHPKQALSTLAQQAPEHPYSRIGEANVTQLIEQAQTLLSTTRNLDYKGNGDENHYRITPVGRSRMSWMSPQRVPTYSVNQPFPWKKIAVVGIEGFLDFQPQFASSTLNEQGIEAIPYHIHLPLLDRLRDNPSEFRAINIARYLDKPENTQALAEELIKHIDNSVEAIVLPACIGLDEEAPVNLLQECVGKPICLLPTLPPSLLGIRLHQALKLRFQQAGGLIMPGDRAEEADLVGNKVVGIHTRNHTDIPIRSEHVVLATGSFFNNGLIAEFDRIYEPLMELDLLESLPRNEWTQVNVFAKQPYMRFGVNTDSQLRPLKYGEALDNVYAVGALLGGFDPLNEGCGAGVSMISALYAAQQILQSDKSQHTTSAAVEAVL	not failed
MKFEAIAVEKIPLIHEGDNLPSIICEKIGLQDRDIMIIASTIVAKAEGEIFRLEDITPGEEALEIAARTGKDPRFIQAVLSKSREVFVETPFMLVTTLAGHTCVNAGIDESNIENGFLLYPPENPDASALKIGKELEKLSGKKLSIIITDTNGRAFKIGQTGVAIGIYNIKPVKRWIGEKDLFGKVLEITEQAIADELAGAANLLMGEGAGGIPVVIIRGLDYYCEGDTSIKESYRPENMDVIKQGLRCLRNKK	failed
MKFEGIYTPAITPLSADGSIDTQAFAEVLEFLVESKVHGIVIGGSTGEYYAHTAEERLALAAHASEVIAGRLPLVVGTGAIRTEDSLAYAEAARAIGADAILVGSPPYALPTSREIAEHVLAVDRAAGLPIMLYNYPARMGVEMDEAFFAAVAGCRNIVAIKESSGSTAQLHRLACRHPRIALSCGWDDQALEFFAWGARSWVCAGSNFIPGEHLALYQACVVENDFAKGRRIMAAMMPLMDFLESGHFVQSIKHGCELAGLRAGGVRAPLKALDEAGKAALAEIVARLKGEVAR	failed
MKFGRKCRIIVFISLVLFTFPVFSQDKNFTDKPSSSDKRVASEEFRRGVQAYYRGTFNEAILLFEKALSYLPDESLILDWLGKAYYSSGVEGAALTQWELAEAAGYGGMLLKNKIEILKESRSLTPYSSDNIKYVENSSFSSKNGTVELFRQPLSIAAVSDGSFWMTAYGSNELLHFNVNGIILDRTKGPIQGFDRPFDVIALSDGNLLVSEFAADRISLLDKNGSFIKSFGTRGRGNGEFIGPQFLAEDEYGNIYVCDFGNARIVVFSSAGEPLFTFGKKSGLFGGFTAPAGIAVVDGLVYIADAIKGAVYTFDTAGNFVQSLLPEGTLKQIESLREWNGNLVASAGNKAYLIDIAFSTVSELTSLGNVPTKITAAVPDVNGSLLLIDHKNQTVEITSRINELAGGLFVLIKKVYSDKFPEVLVEVSVQNRDGKQIVGLTQDNFIITEGNRPVADYSLTGSSYLNKTCDIAVIVERSPNSLKEKALIEAALKEIAEAMQGRGKISLISASSIPALEGKFSPADLITLPNRIKTPASSDWKLDLALRLAVGELINAEQKRAVLFLNFSDPNSDNFKQYNLNDLASYMKNNNIRFYPISLKKGAPASEMSYLAKKTGGKTSYIYAERGLKPLIDDIIEKPLGMYQLKYTSTMSTDFGRSFLPVEVEVQLLERSGRDEIGYFAPLE	failed
MKFLELNKKRHATKHFTDKLVDPKDVRTAIEIATLAPSAHNSQPWKFVVVREKNAELAKLAYGSNFEQVSSAPVTIALFTDTDLAKRARKIARVGGANNFSEEQLQYFMKNLPAEFARYSEQQVSDYLALNAGLVAMNLVLALTDQGIGSNIILGFDKSKVNEVLEIEDRFRPELLITVGYTDEKLEPSYRLPVDEIIEKR	not failed
MKFLVENLNGSSFELEVDYRDTLLVVKQKIERSQHIPVSKQTLIVDGIVILREDLTVEQCQIVPTSDIQLEVSS	not failed
MKFRGNFVCQPRAGPAESRPTRPFTPRPSATGSLFMSNQHFVSPDLIRQGFSRAMSDMYREEVPLYGALMELVAEVNAQVLERQPALARHLQSSGELQRLDLERHGAIRVGSAAELATLARLFAVMGMQPVGYYDLTPAGVPVHSTAFRAVHEAALQVSPFRVFTSLLRLELIDNPELRSFAEQVLARRQIFTPQVLELIQQAEAAGGLDAEDAERFIRQALETFRWHHHATVTAAQYASLSAQHRLIADVVAFKGPHINHLTPRTLDIDEVQRLMPARGITPKAVIEGPPRRECPILLRQTSFKALEESVAFTDQAQSQGSHSARFGEIEQRGAALTPKGRELYDRLLNAARDALGDFPNEANAQRYNQLMQEHFREFPDSHPAMREQGLAYFRYFVSETGLAARNQPQRPTTLAALLAAGHLSAEPLVYEDFLPVSAAGIFQSNLGDDSQSHYAGQSNRQAFEAALGRPTLDELQLYAQTQQRSLEHCAATLGLPALLEHHHHHH	failed
MKFTKNQFIWLVVLFFSCFLIYTYWETVVSICNKIFVASQPFLFGAGIAFVVNILMSFYEKILIKFIPFGFITKIKRPVSLLLAFATIGLIFTWVVFTVLPDLIDSINTLISQDRSAINNLINWLLKNKSLQKIIQDLGGVTQVRELINSYSAQLLQQIMNGLTNFLTSLTSLPSTLINLFISIVFSCYVLVGKEKLGSQVNRLVDVYLGRYGKTFHYVVAILNNRFHNFFVYQSIEACILGTLCYIGMRIFNFPYAATISILIGFSAMIPVLGAYIGVTIGTILIMTHSVTLALLFVAYVVILQQFEGNLIYPYVVGGSTGLPVVWVILAITIGSALGGILGMLVSVPVAATLYQIVKDNVVTREKAKAVASLENSD	not failed
MKGILFAVFAGIFITLQGTFNAKLSSHIGIWSTSIITHLIGFIIATTVFLLKKEEKVTDLKSVKKIYLVAGAFGGFIICAETMAIYSLGVTLTAGTLMAAQLLTATVIEMKGLFHIKKIQMERYHIVGTIVMIIGIVVFNM	failed
MKGLRRLVLDVLKPHEPKTIVFALKLSELENVDGVNIHLSEIDQATENIKITILGNNLDYEQIKGVIEDLGGVIHSVDEVVAGKIIVESVKTEQDLEHHHHHH	failed
MKGNCLLKEYQVTMSDDAKADLLSIYHYVRDELCAPQAADDLLERLSQGMLSLSIFPERCAIIEDLIGKGYTFRQLIVKKYRIVYHVLEDEVIIVAVVYGSRHMNNWLEHHHHHH	failed
MKGNSFGEIISSEDIGLRKGADSSHEIITSIPSGARVNIIDKMSKDWYKVSYKDFTGYLQAKDIRVLGLEHHHHHH	failed
MKGTFTNLLVLLLIALVCANVGARKLISEDTQFKDEKSFLGGGGSGDGLGLGLGGGAGLGGLGIGAGIGAGAGLGLGGGGGGLGGGGGGLLGGGGFGGGAGGGLGGLP	failed
MKHFKLPDLGEGLQEAEIVEWHVKAGDSVRADQRLVSVETAKALVDIPAPYDGVVGKLFGAEGDILHVGEPLVGFEGEEADAGTVVGRLEGGGSALEDRFFIGAAPSTREHLAPRATPAVRQFARQQGVELAGLSGSGPDGLITRADVEAAAQGTRERFGGERLRGVRRSMALNMARSHAEVVPVTIYGDADLHRWKTARDPLIRLAQALAEACRAEPTLNAWFDGASLSLKLHERLDLGIAVDTPDGLFVPVLRDVGARSAEDLRAGMRRLREDVQARSIPPAEMLGATLTLSNFGTLFGRYANPVVVPPQVAILGAGGIRDEVVAWRGEMAIHPILPLSLSFDHRAATGGEAARFLKVLVNALEQPD	failed
MKHFLTLRDFSKEEILSLVNHASELKKEPKKLLQDKTLAMIFEKNSTRTRMAFELAITELGGKALFLSSNDLQLSRGEPVKDTARVIGAMVDFVMMRVNKHETLLEFARYSKAPVINALSELYHPTQVLGDLFTIKEWNKMQNGIAKVAFIGDSNNMCNSWLITAAILGFEISIAMPKNYKISPEIWEFAMKQALISGAKISLGYDKFEALKDKDVVITDTWVSMGEENEKERKIKEFEGFMIDEKAMSVANKDAILLHCLPAYRGYEVSEEIFEKHADVIFEEARNRLYVVKALLCFLDNQRGRE	not failed
MKHIHIIGIGGTFMGGLAAIAKEAGFEVSGCDAKMYPPMSTQLEALGIDVYEGFDAAQLDEFKADVYVIGNVAKRGMDVVEAILNLGLPYISGPQWLSENVLHHHWVLGVAGTHGKTTTASMLAWVLEYAGLAPGFLIGGVPENFGVSARLPQTPRQDPNSQSPFFVIEADEYDTAFFDKRSKFVHYRPRTAVLNNLEFDHADIFADLGAIQTQFHYLVRTVPSEGLIVCNGRQQSLQDTLDKGCWTPVEKFGTEHGWQAGEANADGSFDVLLDGKTAGRVKWDLMGRHNRMNALAVIAAARHVGVDIQTACEALGAFKNVKRRMEIKGTANGITVYDDFAHHPTAIETTIQGLRQRVGGARILAVLEPRSNTMKLGTMKSALPVSLKEADQVFCYAGGVDWDVAEALAPLGGRLNVGKDFDAFVAEIVKNAEVGDHILVMSNGGFGGIHGKLLEALR	not failed
MKHKGLIRSYEMEFAFLYRLSDLAVIVTFMLLLVLKDTNTSMDKDYVILSFVGGISFLFMAESGNLYRSWRTSSFREQMFIVCMSWLMTSALLFMVLYFSEVYPLFDRSILALWVTITPALLLAWRVTFRTVLAYLRKMGFNTRTAIIIGQTPHGITLANEIQNHTEHGVLFDGFYDERSSDRLPSSEYPIKGAVNQALERAKRGEVDYVYIAMPMHAKERIASILNQFSDTTANTYLIPDFFTYNLLHSRWDQIGQVQTLSVFDTPFAGVSSWIKRFEDILCSSIILVLISPILLAIAIGIKLTSKGPVIFKQHRYGLDGRKIEVWKFRSMTTMDQGPNIKQATKNDPRITPFGSFLRRTSLDELPQFINVLQGTMSIVGPRPHAVAHNEEYRQIVARYMLRHKVKPGITGWAQINGYRGETDTLDKMEKRVEFDLDYIHHWSVWMDIKIIFLTVFKGFTGSNAY	failed
MKHPDALRIALVGIGKIARDQHVPTIAARDDVQLVATVSRHGTVDGVPAYHTLEDAFAAQPQIEAVALCTPPVGRHALAQAALAAGRHVFLEKPPAATLAEIHDLQDVAQRAQRTLFTSWHSRCAAGVEPARAWLADKQLVRAHITWKEDIRHWHPGQDWILEPGGMGVFDPGINALSIATHLLPRSLALRDAELHTPENRQAPLYARLAFVDTAGLPVTAEFDFLQTGHQRWDIEVETTAGMLMLSEGGAKLRIEGQLQALPASSEYDGLYGRFVQLVRAGQSEVDIAPFVHVADAFMLGARQVTAPFAW	failed
